Reference: WO2021028359A1 (dated 2021)

Target: HLA-A2 on HLA-A2 positive peripheral blood mononuclear cells (human)
Test: cell-based or functional assay

B1: HLA-A2 CAR (anti-HLA-A2 chimeric antigen receptor: CD8 leader, scFv directed against HLA-A2, CD8 alpha linker and transmembrane domain, CD28 activation domain, … (receptor)
chain: SQVQLQQSGPELVKPGASVKMSCKASGYTFTSYHIQWVKQRPGQGLEWIGWIYPGDGSTQYNEKFKGKTTLTADKSSSTAYMLLSSLTSEDSAIYFCAREGTYYAMDYWGQGTSVTVSSGGGGSGGGGSGGGGSDVLMTQTPLSLPVSLGDQVSISCRSSQSIVHSNGNTYLEWYLQKPGQSPKLLIYKVSNRFSGVPDRFSGSGSGTDFTLKISRVEAEDLGVYYCFQGSHVPRTFGGGTKLEIKRTTTPAPRPPTPAPTIASQPLSLRPEACRPAAGGAVHTRGLDFACDIYIWAPLAGTCGVLLLSLVITLYCRSKRSRLLHSDYMNMTPRRPGPTRKHYQPYAPPRDFAAYRSRVKFSRSADAPAYQQGQNQLYNELNLGRREEYDVLDKRRGRDPEMGGKPRRKNPQEGLYNELQKDKMAEAYSEIGMKGERRRGKGHDGLYQGLSTATKDTYDALHMQALPPR
Question: Which results are given for B1?
Answer: CD69 cell surface expression on Tregs transduced with TX135 (PGK promoter), 24 h co-incubation, flow cytometry: 3.7 fold; CD69 cell surface expression on Tregs transduced with pTX137 (EF1a promoter), 24 h co-incubation, flow cytometry: < 2 fold; CD69 cell surface expression on Tregs transduced with pTX138 (EF1a promoter + WpreMut6), 24 h co-incubation, flow cytometry: < 2 fold
